Experimental data: PMC3820160

Biological target: HA/Flag-tagged Met66 prodomain (human)
Assay: co-IP

Chain of HA/Flag-tagged Met66 prodomain (human) (P23560 19-247): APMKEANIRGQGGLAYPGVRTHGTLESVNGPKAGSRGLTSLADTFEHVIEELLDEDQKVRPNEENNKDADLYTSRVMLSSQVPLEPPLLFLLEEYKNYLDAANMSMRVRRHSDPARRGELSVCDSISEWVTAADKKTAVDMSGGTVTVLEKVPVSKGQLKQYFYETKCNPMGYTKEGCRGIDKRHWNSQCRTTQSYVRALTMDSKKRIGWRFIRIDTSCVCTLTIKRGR

percent more co-immunoprecipitated than with the Val66 prodomain: 23%
Substance: Myc-tagged SorCS2 (from UniProt Q96PQ0 51-1159) (receptor)
